The target of assay [1] is BG505 DS-SOSIP.664 (gp140 trimer) (HIV (BG505)) (UniProt Q2N0S6). As to the kind of experiment: SPR. A general note: SPR reads the build-up and loss of mass on a sensor chip optically.
The target of assay [2] is human FcRn receptor (neonatal Fc receptor) (human) (UniProt P55899). The assay can be described thus: SPR.

Chain of griffithsin (GRFT) (P84801 whole entry): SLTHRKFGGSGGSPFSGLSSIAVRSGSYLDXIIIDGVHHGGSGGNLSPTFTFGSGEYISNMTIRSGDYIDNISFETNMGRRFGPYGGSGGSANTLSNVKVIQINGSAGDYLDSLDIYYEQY

Turning to “griffithsin (GRFT) (from UniProt P84801 1-121) (natural protein)”, in assay [1], the koff (commonly the first-order rate constant of dissociation) stood at 0.0136 s⁻¹ and the kon (commonly the second-order rate constant of association) came out at 1.42e+07 M⁻¹ s⁻¹. For “VRC01 (standard anti-HIV broadly neutralizing antibody)”, in assay [2], the Kd (in general, a measure of binding affinity in units of concentration) is 78.2 nM.

The record behind these values is paper PMC12266039.
